Reference: US20150044237A1 (CENTRE NATIONAL DE LA RECHERCHE SCIENTIFIQUE, published 2015)

Columns and labels:
[1] = molecular target: T1, Fas (CD95/APO-1) on Jurkat cells (human, UniProt P25445 26-335); test: cell-based or functional assay
T1 sequence (looked up): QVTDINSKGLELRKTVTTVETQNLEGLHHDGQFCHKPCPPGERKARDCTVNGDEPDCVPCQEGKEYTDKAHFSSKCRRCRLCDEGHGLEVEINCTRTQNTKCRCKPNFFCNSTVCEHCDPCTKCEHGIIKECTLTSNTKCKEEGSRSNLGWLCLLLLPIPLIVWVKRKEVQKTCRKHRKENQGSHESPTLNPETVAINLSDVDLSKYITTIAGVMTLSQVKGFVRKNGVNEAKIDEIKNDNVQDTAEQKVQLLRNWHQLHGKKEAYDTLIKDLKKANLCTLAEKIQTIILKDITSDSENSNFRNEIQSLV

[2] = molecular target: T2, CD28 on human cells (human, UniProt P10747 19-220); test: inferred from inhibition of cell death by anti-CD28 blocking antibody on JKCD28high cells
T2 construct: whole, on cells; also called CD28 receptor
Procedure: FIG. 14: Effect of the pFasL and CD80-pFasL chimeras on the JKCD28low, JKCD28high and JKCD28delta cell lines. Panel A: membrane expression of Fas and CD28 on the three cell lines. The cells were stained with the indicated antibodies, or with an isotype-matched negative control antibody (shaded histograms) then analysed by flow cytometry. Panel B: the apoptotic activity of the pFasL and CD80-pFasL chimeras was tested against the three cell lines (JKCD28 low: empty triangles; JKCD28high: filled triangles; JKCD28delta: squares) at a range of concentrations, measured in the FasL ELISA. Cell death was estimated by the MTT viability assay. Mean and sd from three distinct experiments. Panel C: the pFasL and CD80-pFasL chimeras were used at a non-saturating concentration that triggers a suboptimal cell death. The JKCD28low and JKCD28high cell lines were pre-incubated without (no antibody) or with an isotype-matched control antibody at 10 μg/mL or with the CD28.2 clone of anti-CD28 blocking antibody at 10, 3 or 1 μg/mL. Cell death was measured using the MTT cell viability assay. Mean and sd from three distinct experiments.
To analyse this possibility, the inventors conducted experiments where CD28 was blocked using a neutralising antibody. […]

C50 against pFasL, JKCD28delta cell line [1]: 10 fold increase against pFasL | C50 against pFasL, JKCD28high cell line [1]: 2.5 fold decrease against pFasL | C50 against pFasL, JKCD28low cell line [1]: 17 fold decrease against pFasL
B1: CD80-pFasL (other)
chain: VIHVTKEVKEVATLSCGHNVSVEELAQTRIYWQKEKKMVLTMMSGDMNIWPEYKNRTIFDITNNLSIVILALRPSDEGTYECVVLKYEKDAFKREHLAEVTLSVKADFPTPSISDFEIPTSNIRRIICSTSGGFPEPHLSWLENGEELNAINTTVSQDPETELYAVSSKLDFNMTTNHSFMCLIKYGHLRVNQTFNWNTTKQEHFPSSIPDSQTKVFPQDKVILVGSDITFCCVSQEKVLSALIGHTNCPLIHLDGENVAIKIRNISVSASSGTNVVFTTEDNIFGTVISRALQKELAELRESTSQMHTASSLEKQIGHPSPPPEKKELRKVAHLTGKSNSRSMPLEWEDTYGIVLLSGVKYKKGGLVINETGLYFVYSKVYFRGQSCNNLPLSHKVYMRNSKYPQDLVMMEGKMMSYCTTGQMWARSSYLGAVFNLTSADHLYVNVSELSLVNFEESQTFFGLYKL
notes: Polymeric, produced in HEK 293T cells; also called CD80IgFasL; CD80-IgFasL polymeric chimera
binding result [2]: binds
